In assay [1] the target is T1, Mouse EGFR (recombinant, soluble monomeric) (mouse, UniProt Q01279 25-647).
T1 construct: also called murine EGFR
Kind of assay: ELISA: antigen coated at 1 ug/mL, antibody dilution series, goat anti-human Fab-HRP, A450; panel Mouse EGFR.

Assay [2] has as its target T2, Human EGFR (recombinant, soluble monomeric) (human, UniProt P00533 25-645).
T2 construct: also called EGFR antigen
Kind of assay: Octet biolayer interferometry, antigen capture format: His-tagged human cMET on NI-NTA sensors, then antibody (66 nM), then human EGFR (500 nM). (Biolayer interferometry detects binding as a change in optical thickness at a sensor tip.)

Another assay addresses T3, HER3 (UniProt P21860 20-643, limits assumed).
T3 construct: also called EGFR HER family protein HER3
Kind of assay: ELISA: antigen coated at 1 ug/mL, antibody dilution series, goat anti-human Fab-HRP, A450; panel Human HER3. On the technique in general: An ELISA detects its analyte on a solid surface through an enzyme-linked reagent.

Assay [3] has as its target T4, Cynomolgus monkey EGFR (recombinant, soluble monomeric) (cynomolgus monkey, UniProt P55245 25-645 (rhesus entry)).
T4 construct: also called cyno EGFR
The experiment in a line: ELISA: antigen coated at 1 ug/mL, antibody dilution series, goat anti-human Fab-HRP, A450; panel Cynomolgus EGFR.

A further assay deals with T5, HER4 (UniProt Q15303 26-649, limits assumed).
T5 construct: also called EGFR HER family protein HER4
T5 sequence (looked up): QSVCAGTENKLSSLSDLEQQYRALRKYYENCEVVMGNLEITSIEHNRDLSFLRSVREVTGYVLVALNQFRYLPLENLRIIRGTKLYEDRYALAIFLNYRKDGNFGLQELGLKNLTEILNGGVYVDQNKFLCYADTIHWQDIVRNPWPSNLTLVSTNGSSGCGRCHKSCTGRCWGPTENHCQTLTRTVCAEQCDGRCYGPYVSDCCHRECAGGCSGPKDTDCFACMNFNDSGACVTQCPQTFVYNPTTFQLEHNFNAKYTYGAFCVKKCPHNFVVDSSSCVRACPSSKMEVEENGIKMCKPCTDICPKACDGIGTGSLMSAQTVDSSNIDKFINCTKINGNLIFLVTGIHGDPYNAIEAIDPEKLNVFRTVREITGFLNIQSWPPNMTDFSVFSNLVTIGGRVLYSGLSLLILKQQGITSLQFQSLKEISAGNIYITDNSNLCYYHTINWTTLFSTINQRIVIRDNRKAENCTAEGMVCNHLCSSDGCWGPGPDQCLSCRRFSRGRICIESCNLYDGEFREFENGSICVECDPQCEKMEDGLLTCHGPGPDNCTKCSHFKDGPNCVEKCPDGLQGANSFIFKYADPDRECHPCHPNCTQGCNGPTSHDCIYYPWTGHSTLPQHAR
Kind of assay: ELISA: antigen coated at 1 ug/mL, antibody dilution series, goat anti-human Fab-HRP, A450; panel Human HER4.

For the next assay, the target named is T6, HER2 (UniProt P04626 23-652, limits assumed).
T6 construct: also called EGFR HER family protein HER2
The experiment in a line: ELISA: antigen coated at 1 ug/mL, antibody dilution series, goat anti-human Fab-HRP, A450; panel Human HER2.

A further assay addresses T7, Semaphorin 3a (UniProt Q14563 21-771, limits assumed).
T7 construct: also called Sema 3a
T7 sequence (looked up): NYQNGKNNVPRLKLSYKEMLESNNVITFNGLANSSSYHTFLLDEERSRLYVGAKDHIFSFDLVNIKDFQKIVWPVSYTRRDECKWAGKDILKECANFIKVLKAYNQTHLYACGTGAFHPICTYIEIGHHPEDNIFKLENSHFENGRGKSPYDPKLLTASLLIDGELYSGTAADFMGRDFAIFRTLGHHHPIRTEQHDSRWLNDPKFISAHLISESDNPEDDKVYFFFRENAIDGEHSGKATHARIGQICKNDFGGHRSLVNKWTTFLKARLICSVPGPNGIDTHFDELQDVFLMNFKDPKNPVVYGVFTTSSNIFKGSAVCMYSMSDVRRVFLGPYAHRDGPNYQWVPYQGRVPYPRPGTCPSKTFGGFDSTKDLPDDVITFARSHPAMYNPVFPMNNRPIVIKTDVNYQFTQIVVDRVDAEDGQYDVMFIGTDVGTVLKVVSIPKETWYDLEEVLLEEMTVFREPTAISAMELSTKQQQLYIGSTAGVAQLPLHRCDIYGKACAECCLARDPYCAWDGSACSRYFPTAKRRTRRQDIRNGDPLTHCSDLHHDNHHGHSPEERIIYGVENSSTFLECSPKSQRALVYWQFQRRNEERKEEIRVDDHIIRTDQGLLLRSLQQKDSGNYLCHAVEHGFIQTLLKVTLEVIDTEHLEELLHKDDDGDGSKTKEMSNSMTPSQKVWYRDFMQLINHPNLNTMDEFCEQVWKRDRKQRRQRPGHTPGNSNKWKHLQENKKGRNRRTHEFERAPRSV
The experiment in a line: ELISA: antigen coated at 1 ug/mL, antibody dilution series, goat anti-human Fab-HRP, A450; panel Human Sema3a.

In assay [4] the target is T8, Human cMET (recombinant, soluble monomeric) (human, UniProt P08581 25-932).
T8 construct: in the HTRF assay it is called the human cMET receptor; also called His-tagged cMET antigen
Kind of assay: SPR, Biacore T200, antibody captured on anti-human IgG, soluble monomeric antigen as analyte, 25 C. Background: SPR reads the build-up and loss of mass on a sensor chip optically.

Assay [5] addresses T9, Cynomolgus monkey cMET (recombinant, soluble monomeric) (cynomolgus monkey, UniProt A0M8R7 25-932 (Papio anubis entry)).
T9 construct: also called cyno cMET
The description is as above.

For the next assay, the target named is Ron (CD136) (UniProt Q04912 25-957, limits assumed). The experiment in a line: ELISA: antigen coated at 1 ug/mL, antibody dilution series, goat anti-human Fab-HRP, A450; panel Human Ron (CD136).
A further assay concerns the target Mouse cMET (recombinant) (mouse, UniProt P16056 25-929, limits assumed). The experiment in a line: ELISA: antigen coated at 1 ug/mL, antibody dilution series, goat anti-human Fab-HRP, A450; panel Mouse cMET.

This is an account of results in patent US20260166140A1, “Combinations Involving Epidermal Growth Factor Receptor Tyrosine Kinase Inhibitors For the Treatment of Cancer” (AstraZeneca AB, priority 2022, published 2026).

T8 sequence (P08581 25-932): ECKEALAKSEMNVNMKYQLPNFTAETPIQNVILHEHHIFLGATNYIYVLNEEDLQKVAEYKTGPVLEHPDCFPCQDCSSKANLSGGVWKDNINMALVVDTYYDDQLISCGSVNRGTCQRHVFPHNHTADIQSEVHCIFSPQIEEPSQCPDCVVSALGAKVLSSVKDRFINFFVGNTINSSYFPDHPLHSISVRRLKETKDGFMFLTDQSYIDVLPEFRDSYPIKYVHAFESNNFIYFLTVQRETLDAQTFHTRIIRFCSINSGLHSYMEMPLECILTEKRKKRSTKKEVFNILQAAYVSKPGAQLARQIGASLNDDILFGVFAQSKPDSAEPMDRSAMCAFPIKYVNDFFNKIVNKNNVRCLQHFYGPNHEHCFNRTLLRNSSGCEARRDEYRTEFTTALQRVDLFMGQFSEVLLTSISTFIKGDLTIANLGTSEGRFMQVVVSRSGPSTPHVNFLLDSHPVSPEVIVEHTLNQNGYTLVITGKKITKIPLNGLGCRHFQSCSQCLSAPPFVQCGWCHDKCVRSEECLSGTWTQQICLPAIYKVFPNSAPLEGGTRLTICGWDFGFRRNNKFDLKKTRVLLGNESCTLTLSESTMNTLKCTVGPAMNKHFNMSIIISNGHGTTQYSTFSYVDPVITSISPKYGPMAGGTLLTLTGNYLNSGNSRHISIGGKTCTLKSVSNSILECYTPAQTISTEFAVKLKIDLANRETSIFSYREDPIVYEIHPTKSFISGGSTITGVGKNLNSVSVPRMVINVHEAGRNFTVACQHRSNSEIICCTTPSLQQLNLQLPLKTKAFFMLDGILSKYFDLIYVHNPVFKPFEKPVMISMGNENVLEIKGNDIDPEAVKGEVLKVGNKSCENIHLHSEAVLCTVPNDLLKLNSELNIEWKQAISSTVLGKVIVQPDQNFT
T9 sequence (A0M8R7 25-932 S170N/I621T): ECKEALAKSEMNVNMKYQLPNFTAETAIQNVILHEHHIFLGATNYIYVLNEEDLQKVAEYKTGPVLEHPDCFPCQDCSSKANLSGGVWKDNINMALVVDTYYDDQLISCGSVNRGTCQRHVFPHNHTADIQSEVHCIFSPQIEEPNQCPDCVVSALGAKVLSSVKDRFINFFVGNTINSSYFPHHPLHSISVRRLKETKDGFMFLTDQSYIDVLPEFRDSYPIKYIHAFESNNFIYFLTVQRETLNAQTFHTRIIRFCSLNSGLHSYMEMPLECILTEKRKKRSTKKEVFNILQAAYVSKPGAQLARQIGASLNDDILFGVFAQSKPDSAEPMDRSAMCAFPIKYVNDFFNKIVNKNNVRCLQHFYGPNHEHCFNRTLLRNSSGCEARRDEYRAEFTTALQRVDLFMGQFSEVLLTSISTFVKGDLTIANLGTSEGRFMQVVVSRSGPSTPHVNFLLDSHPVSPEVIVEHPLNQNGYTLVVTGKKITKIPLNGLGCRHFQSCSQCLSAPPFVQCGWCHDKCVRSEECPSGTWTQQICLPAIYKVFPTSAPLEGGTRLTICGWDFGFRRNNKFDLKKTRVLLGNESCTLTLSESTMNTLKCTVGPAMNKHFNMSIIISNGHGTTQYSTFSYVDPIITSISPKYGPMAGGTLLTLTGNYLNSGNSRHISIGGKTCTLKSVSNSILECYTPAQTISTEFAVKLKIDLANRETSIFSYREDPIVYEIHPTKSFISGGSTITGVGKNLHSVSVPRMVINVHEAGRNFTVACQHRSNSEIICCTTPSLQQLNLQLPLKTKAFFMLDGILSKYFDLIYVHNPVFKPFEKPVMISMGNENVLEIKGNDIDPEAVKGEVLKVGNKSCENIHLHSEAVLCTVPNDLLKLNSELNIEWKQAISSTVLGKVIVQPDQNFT
Chain of Mouse cMET (recombinant) (P16056 25-929 limits assumed): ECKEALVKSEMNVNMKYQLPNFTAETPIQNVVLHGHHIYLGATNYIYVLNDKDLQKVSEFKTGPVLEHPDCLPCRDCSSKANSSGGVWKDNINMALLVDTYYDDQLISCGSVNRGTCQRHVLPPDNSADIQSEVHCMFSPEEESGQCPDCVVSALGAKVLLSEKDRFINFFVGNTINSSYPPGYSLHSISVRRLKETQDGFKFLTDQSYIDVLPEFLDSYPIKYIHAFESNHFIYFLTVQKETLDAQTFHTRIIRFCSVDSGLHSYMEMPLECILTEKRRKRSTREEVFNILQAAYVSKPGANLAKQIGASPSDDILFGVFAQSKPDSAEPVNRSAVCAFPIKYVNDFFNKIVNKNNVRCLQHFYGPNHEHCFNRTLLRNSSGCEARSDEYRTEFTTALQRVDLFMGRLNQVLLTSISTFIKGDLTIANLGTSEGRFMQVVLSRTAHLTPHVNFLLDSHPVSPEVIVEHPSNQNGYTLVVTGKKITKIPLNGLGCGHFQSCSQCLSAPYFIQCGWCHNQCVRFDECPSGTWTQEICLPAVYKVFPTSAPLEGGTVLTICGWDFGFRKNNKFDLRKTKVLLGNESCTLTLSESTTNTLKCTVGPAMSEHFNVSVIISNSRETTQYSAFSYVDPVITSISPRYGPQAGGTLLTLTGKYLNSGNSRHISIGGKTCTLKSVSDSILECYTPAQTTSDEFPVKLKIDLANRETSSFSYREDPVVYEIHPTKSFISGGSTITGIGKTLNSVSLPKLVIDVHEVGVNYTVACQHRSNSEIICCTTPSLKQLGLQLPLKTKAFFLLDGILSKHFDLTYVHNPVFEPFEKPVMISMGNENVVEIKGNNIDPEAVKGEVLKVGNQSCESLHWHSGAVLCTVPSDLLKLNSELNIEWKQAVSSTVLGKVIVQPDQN

B1: B09-57 IgG (antibody, V domains shown)
VH: QVQLVQSGAEVKKPGASVKVSCKASGYTFTDYYIHWVRQATGQGLEWMGWMNPNSGNTGYAQKFQGRVTMTRDTSISTAYMELSSLRSEDTAVYYCARGQGYTHSWGQGTMVTVSS
VL: DIQMTQSPSTLSASVGDRVTITCRASEGIYHWLAWYQQKPGKAPKLLIYKASSLASGVPSRFSGSGSGTEFTLTISSLQPDDFATYYCQQYSNYPPTFGGGTKLEIK
notes: also called B09-GL; cMET IgG B09
For B1, the binding result is “no binding (tested: 10 ug/ml)” in assay [1]; “no binding (tested: 500 nM EGFR)” in [2]; “no binding (tested: 10 ug/ml)” in the assay with HER3; “no binding (tested: 10 ug/ml)” in [3]; “no binding (tested: 10 ug/ml)” in the assay with HER4; “no binding (tested: 10 ug/ml)” with HER2. The binding result in the assay with Semaphorin 3a, with Ron (CD136) and with Mouse cMET (recombinant) was “no binding (tested: 10 ug/ml)” each time. The Kd is 1.6 nM in assay [4] and 1.9 nM in [5]. Besides, the koff in assay [4] came to 0.000882 s⁻¹; in assay [5], 0.00194 s⁻¹. The values for the kon in assay [4] and in assay [5] were 563000 M⁻¹ s⁻¹ and 1.04e+06 M⁻¹ s⁻¹, respectively.

By Kd is commonly meant a measure of binding affinity in units of concentration. A word on the koff: it is the rate constant with which the complex falls apart. The kon is the rate constant with which the complex forms.
